Laboratory results reported in patent US5316935A, “Subtilisin variants suitable for hydrolysis and synthesis in organic media” (California Institute of Technology, priority 1992, dated 1994).
Numbering of substitutions follows the chain as printed. Names and notes keep the numbering of the source. Starred links: 1 amine or outer side, 2 acyl side, 3 side chain; linkers in the order of their positions; H or OH if unused. Residues, ends and D or L forms follow the SMILES beside them. *: point of attachment. pNA = O=[N+]([O-])c1ccc(N*)cc1; Suc = O=C(CCC(=O)[*:2])[*:1]

Legend:
[1] = target: T1, Bacillus subtilis subtilisin E variant Q103R (Bacillus subtilis, UniProt P04189, A256V/Q209R); assay: Amidase activity: hydrolysis of p-nitroanilide peptide substrates; assay type: biochemical; settings: 0.1M Tris-HCl, 10 mM CaCl2, pH 8, 37° C.
T1 construct: each contain 275 residues; made in house; host or cells: Bacillus subtilis DB428 (vector pKWC), secreted into the medium
T1 sequence (P04189 107-381 Q209R/A256V): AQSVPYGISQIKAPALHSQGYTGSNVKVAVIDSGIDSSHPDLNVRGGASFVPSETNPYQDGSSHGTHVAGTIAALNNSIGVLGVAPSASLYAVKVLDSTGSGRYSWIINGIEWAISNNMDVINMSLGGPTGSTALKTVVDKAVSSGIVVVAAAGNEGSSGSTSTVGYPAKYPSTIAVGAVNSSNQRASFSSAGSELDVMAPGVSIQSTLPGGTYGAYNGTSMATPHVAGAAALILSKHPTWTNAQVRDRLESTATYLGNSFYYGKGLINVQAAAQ
Description: (§1) The amidase activities of subtilisin and derivatives thereof were measured on the substrate succinyl-Ala-Ala-Pro-Phe-p-nitroanilide (sAAPF-pna) at 37° C. in 0.1M Tris-HCl, pH 8.0 and 10 mM CaCl2. Assays were initiated by mixing the enzyme, the substrate and the reaction buffer. The amount of released p-nitroaniline was measured spectrophotometrically at 410 nm as a function of time. KM and kcat values for hydrolysis of sAAPF-pna by the subtilisin variants were obtained by nonlinear regression of the data using the program Enzfitter (Biosoft).
(§2) For activity measurements in mixed buffer (containing DMF), a portion of the aqueous buffer was replaced by the percentage (w/v) of DMF indicated in Table II. Kinetic constants are reported in Table II for the wild-type enzyme and six variants with 3-10 amino acid substitutions in 20% and 40% DMF.
(§3) The effects of different amino acid substitutions at position 103 on amidase activity were investigated. The variants Q103E, Q103K, and Q103S were constructed by PCR site-directed mutagenesis as described in Example VIII. The amidase activities of these variants and the variant Q103R identified by random mutagenesis and screening for enhanced activity in the presence of DMF (Example IV) are compared in Table III. The reactions were carried out in 10% DMF according to the procedures outlined in Examples XI and XII.
(§4) The effects of the Q103R amino acid substitution on amidase activity were investigated for two substrates, succinyl-Ala-Ala-Pro-Phe-p-nitroanilide (negatively-charged succinyl group at the peptide N-terminus) and Ala-Ala-Pro-Phe-p-nitroanilide (positively charged N-terminus) in 10% DMF.

[2] = target: T2, Bacillus subtilis subtilisin E variant 3M (D60N + Q103R + N218S) (Bacillus subtilis, UniProt P04189, A256V/D166N/N324S/Q209R); assay: Transesterification of methyl ester to ethyl ester in organic solvents; assay type: biochemical; settings: 1M ethanol, 32° C.
T2 construct: each contain 275 residues; made in house; host or cells: Bacillus subtilis DB428 (vector pKWC), secreted into the medium
T2 sequence (P04189 107-381 D166N/Q209R/A256V/N324S): T1 sequence (P04189 107-381 Q209R/A256V) with D60N, N218S
Description: (§5) The activity of the D60N+Q103R+N218S (3M) subtilisin E triple variant was compared to that of the wild-type enzyme for the transesterification of N-acetyl-L-phenylalanine methyl ester to the ethyl ester in three organic solvents. The reactions were carried out in 2 mL volumes of the indicated solvent, containing 1 mg/mL of enzyme, 100 mM N-acetyl-L-phenylalanine methyl ester, 1M ethanol. The samples were incubated, with shaking, at 32° C., and the formation of the ethyl ester product was measured by capillary gas chromatography. Values of the kinetic constants kcat /KM are given in Table VII for the wild-type and 3M variant enzymes. In all three solvents, anhydrous hexane, hexane containing 0.1% water, and acetonitrile containing 0.1% water, the D60N+Q103R+N218S (3M) triple variant was considerably more efficient than the wild-type enzyme.

[3] = target: T3, Bacillus subtilis subtilisin E (subtilisin I168, aprA gene product), wild type, SEQ ID NO: 1 (Bacillus subtilis, UniProt P04189); assay: as above; assay type: biochemical; settings: 1M ethanol, 32° C.
T3 construct: each contain 275 residues; made in house; host or cells: Bacillus subtilis DB428 (vector pKWC), secreted into the medium
T3 sequence (P04189 107-381): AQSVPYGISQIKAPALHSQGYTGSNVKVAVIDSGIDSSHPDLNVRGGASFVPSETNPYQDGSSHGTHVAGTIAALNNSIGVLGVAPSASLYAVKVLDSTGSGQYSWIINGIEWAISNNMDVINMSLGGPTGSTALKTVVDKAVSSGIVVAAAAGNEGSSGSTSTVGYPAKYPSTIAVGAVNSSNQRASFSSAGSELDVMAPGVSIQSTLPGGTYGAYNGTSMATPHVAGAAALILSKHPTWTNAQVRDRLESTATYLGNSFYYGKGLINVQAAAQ
Description: as §5

[4] = substrate: C[C@H](N)C(=O)N[C@@H](C)C(=O)N1CCC[C@H]1C(=O)N[C@@H](Cc1ccccc1)C(=O)Nc1ccc([N+](=O)[O-])cc1; assay: Amidase activity: hydrolysis of p-nitroanilide peptide substrates; assay type: biochemical, Bacillus subtilis; settings: other: 10% DMF (Table IV), 0.1M Tris-HCl, 10 mM CaCl2, pH 8, 37° C.
[5] = substrate: C[C@H](NC(=O)CCC(=O)O)C(=O)N[C@@H](C)C(=O)N1CCC[C@H]1C(=O)N[C@@H](Cc1ccccc1)C(=O)Nc1ccc([N+](=O)[O-])cc1; assay: as above; assay type: biochemical, Bacillus subtilis; settings: 0.1M Tris-HCl, 10 mM CaCl2, pH 8, 37° C.
[6] = substrate: C[C@H](NC(=O)CCC(=O)O)C(=O)N[C@@H](C)C(=O)N1CCC[C@H]1C(=O)N[C@@H](Cc1ccccc1)C(=O)Nc1ccc([N+](=O)[O-])cc1; assay: as above; assay type: biochemical, Bacillus subtilis; settings: other: 0% DMF, 0.1M Tris-HCl, 10 mM CaCl2, pH 8, 37° C.
Description: as §1, §2

[7] = substrate: C[C@H](NC(=O)CCC(=O)O)C(=O)N[C@@H](C)C(=O)N1CCC[C@H]1C(=O)N[C@@H](Cc1ccccc1)C(=O)Nc1ccc([N+](=O)[O-])cc1; assay: Amidase activity: hydrolysis of p-nitroanilide peptide substrate; assay type: biochemical, Bacillus subtilis; settings: other: 0% DMF, 0.1M Tris-HCl, 10 mM CaCl2, pH 8, 37° C.
Description: as §1, §2

[8] = substrate: C[C@H](NC(=O)CCC(=O)O)C(=O)N[C@@H](C)C(=O)N1CCC[C@H]1C(=O)N[C@@H](Cc1ccccc1)C(=O)Nc1ccc([N+](=O)[O-])cc1; assay: Amidase activity: hydrolysis of p-nitroanilide peptide substrates; assay type: biochemical, Bacillus subtilis; settings: 0.1M Tris-HCl, 10 mM CaCl2, pH 8, 37° C.; remark: listed apart in the source
Description: as §1, §2, §3, §4

[9] = substrate: C[C@H](NC(=O)CCC(=O)O)C(=O)N[C@@H](C)C(=O)N1CCC[C@H]1C(=O)N[C@@H](Cc1ccccc1)C(=O)Nc1ccc([N+](=O)[O-])cc1; assay: Amidase activity: hydrolysis of p-nitroanilide peptide substrate; assay type: biochemical, Bacillus subtilis; settings: other: 10% DMF, 0.1M Tris-HCl, 10 mM CaCl2, pH 8, 37° C.
Description: as §1, §2, §3

C[C@H](N)C(=O)N[C@@H](C)C(=O)N1CCC[C@H]1C(=O)N[C@@H](Cc1ccccc1)C(=O)Nc1ccc([N+](=O)[O-])cc1 [AAPFpna, Ala-Ala-Pro-Phe-p-nitroanilide] (H-AAPF-pNA)
Km ([1]; 10% DMF (Table IV)): ≥ 37 mM
kcat ([1]; 10% DMF (Table IV)): ≥ 2.6 s⁻¹
kcat /KM ([1]; 10% DMF (Table IV)): 0.07 M^-1 s^-1 × 10^3

COC(=O)[C@H](Cc1ccccc1)NC(C)=O [N-acetyl-L-phenylalanine methyl ester]
kcat /KM ([2]; Ch3 CN (0.1% water)): 3.1 Min^-1 mg^-1 × 10^-3
kcat /KM ([2]; hexane (0.1% water)): 220 Min^-1 mg^-1 × 10^-3
kcat /KM ([2]; hexane (anhydrous)): 17 Min^-1 mg^-1 × 10^-3
kcat /KM ([3]; Ch3 CN (0.1% water)): 0.3 Min^-1 mg^-1 × 10^-3
kcat /KM ([3]; hexane (0.1% water)): 5 Min^-1 mg^-1 × 10^-3
kcat /KM ([3]; hexane (anhydrous)): 0.4 Min^-1 mg^-1 × 10^-3

C[C@H](NC(=O)CCC(=O)O)C(=O)N[C@@H](C)C(=O)N1CCC[C@H]1C(=O)N[C@@H](Cc1ccccc1)C(=O)Nc1ccc([N+](=O)[O-])cc1 [succinyl-Ala-Ala-Pro-Phe-p-nitroanilide] (Suc-AAPF-pNA)
kcat /KM ([1]; 20% DMF): 6.8 M^-1 s^-1 × 10^-3

B1: Bacillus subtilis subtilisin E (subtilisin I168, aprA gene product), wild type, SEQ ID NO: 1 (Bacillus subtilis subsp. subtilis str. 168) (protein)
chain: T1 sequence (P04189 107-381 Q209R/A256V) with R103Q, V150A
notes: each contain 275 residues; made in house; host or cells: Bacillus subtilis DB428 (vector pKWC), secreted into the medium
Km [4]: 7.8 mM
kcat [4]: 0.83 s⁻¹
kcat/Km [4]: 0.11 M^-1 s^-1 × 10^3
Km ([5]; other: 10% DMF (Table III)): 2900 µM
kcat ([5]; other: 10% DMF (Table III)): 20 s⁻¹
kcat/Km ([5]; other: 10% DMF (Table III)): 7.0 M^-1 s^-1 × 10^3
Km ([5]; other: 10% DMF (Table IV)): 510 µM
kcat ([5]; other: 10% DMF (Table IV)): 21 s⁻¹
kcat/Km ([5]; other: 10% DMF (Table IV)): 41 M^-1 s^-1 × 10^3
Km [6]: 560 µM
kcat [6]: 21 s⁻¹
kcat/Km [6]: 38 M^-1 s^-1 × 10^3

B2: Bacillus subtilis subtilisin E variant 7M (D60N + Q103R + N218S + D97G + E156G + N181S + G131D) (Bacillus subtilis subsp. subtilis str. 168; … (protein)
chain: T1 sequence (P04189 107-381 Q209R/A256V) with D60N, D97G, G131D, E156G, N181S, N218S
Km [7]: 30 µM
kcat [7]: 18 s⁻¹
kcat/Km [7]: 606 M^-1 s^-1 × 10^3

B3: Bacillus subtilis subtilisin E variant 4M (D60N + Q103R + N218S + D97G) (Bacillus subtilis subsp. subtilis str. 168; A256V/D166N/D203G/N324S/Q209R) (protein)
chain: T1 sequence (P04189 107-381 Q209R/A256V) with D60N, D97G, N218S
notes: as for B1
Km [7]: 170 µM
kcat [7]: 43 s⁻¹
kcat/Km [7]: 249 M^-1 s^-1 × 10^3

B4: Bacillus subtilis subtilisin E variant 6M (D60N + Q103R + N218S + D97G + E156G + N181S) (Bacillus subtilis subsp. subtilis str. 168; … (protein)
chain: T1 sequence (P04189 107-381 Q209R/A256V) with D60N, D97G, E156G, N181S, N218S
Km [7]: 40 µM
kcat [7]: 12 s⁻¹
kcat/Km [7]: 268 M^-1 s^-1 × 10^3

B5: Bacillus subtilis subtilisin E variant 3M (D60N + Q103R + N218S) (Bacillus subtilis subsp. subtilis str. 168; A256V/D166N/N324S/Q209R) (protein)
chain: T1 sequence (P04189 107-381 Q209R/A256V) with D60N, N218S
notes: as for B1
Km [7]: 110 µM
kcat [7]: 40 s⁻¹
kcat/Km [7]: 360 M^-1 s^-1 × 10^3

B6: Bacillus subtilis subtilisin E variant Q103R (Bacillus subtilis subsp. subtilis str. 168; A256V/Q209R) (protein)
chain: T1 sequence (P04189 107-381 Q209R/A256V)
notes: as for B1
Km ([8]; other: 0% DMF): 250 µM
kcat ([8]; other: 0% DMF): 31 s⁻¹
Km ([8]; other: 10% DMF (Table III)): 1300 µM
kcat ([8]; other: 10% DMF (Table III)): 34 s⁻¹
kcat/Km ([8]; other: 10% DMF (Table III)): 26 M^-1 s^-1 × 10^3

B7: Bacillus subtilis subtilisin E variant Q103S (Bacillus subtilis subsp. subtilis str. 168; A256V/Q209S) (protein)
chain: T1 sequence (P04189 107-381 Q209R/A256V) with R103S
notes: as for B1
Km [9]: 3 mM
kcat [9]: 20 s⁻¹
kcat/Km [9]: 7.0 M^-1 s^-1 × 10^3
